{"source": "patent US20030203406", "proteins": {"B1": {"name": "recombinant human MetAP-3 purified from E. coli after thrombin cleavage of the NusA-6xHis tag (protein)", "chain": "SSPLNHIYLHKQSSSQQRRNFFFRRQRDISHSIVLPAAVSSAHPVPKHIKKPDYVTTGIVPDWGDSIEVKNEDQIQGLHQACQLARHVLLLAGKSLKVDMTTEEIDALVHREIISHNAYPSPLGYGGFPKSVCTSVNNVLCHGIPDSRPLQDGDIINIDVTVYYNGYHGDTSETFLVGNVDECGKKLVEVARRCRDEAIAACRAGAPFSVIGNTISHITHQNGFQVCPHFVGHGIGSYFHGHPEIWHHANDSDLPMEEGMAFTIEPIITEGSPEFKVLEDAWTVVSLDNQRSAQFEHTVLITSRGAQILTKLPHEA"}, "B2": {"name": "recombinant human MetAP-2 expressed in Sf9 insect cells (protein)", "chain": "AGVEEVAASGSHLNGDLDPDDREEGAASTAEEAAKKKRRKKKKSKGPSAAGEQEPDKESGASVDEVARQLERSALEDKERDEDDEDGDGDGDGATGKKKKKKKKKRGPKVQTDPPSVPICDLYPNGVFPKGQECEYPPTQDGRTAAWRTTSEEKKALDQASEEIWNDFREAAEAHRQVRKYVMSWIKPGMTMIEICEKLEDCSRKLIKENGLNAGLAFPTGCSLNNCAAHYTPNAGDTTVLQYDDICKIDFGTHISGRIIDCAFTVTFNPKYDTLLKAVKDATNTGIKCAGIDVRLCDVGEAIQEVMESYEVEIDGKTYQVKPIRNLNGHSIGQYRIHAGKTVPIVKGGEATRMEEGEVYAIETFGSTGKGVVHDDMECSHYMKNFDVGHVPIRLPRTKHLLNVINENFGTLAFCRRWLDRLGESKYLMALKNLCDLGIVDPYPPLCDIKGSYTAQFEHTILLRPTCKEVVSRGDDY"}}, "key": {"[1]": {"target": "T1, MAS tripeptide (Met-Ala-Ser)", "T1 chain": "MAS"}, "MGG tripeptide": {"target": "T2, MGG tripeptide", "T2 chain": "MGG"}, "IGG tripeptide": {"target": "T3, IGG tripeptide", "T3 chain": "IGG"}, "GGG tripeptide": {"target": "T4, GGG tripeptide", "T4 chain": "GGG"}, "MEG tripeptide": {"target": "T5, MEG tripeptide", "T5 chain": "MEG"}}, "data": [{"protein": "B1", "values": [{"measurement": "Cleaved", "setting": "[1]", "result": "Yes"}, {"measurement": "Km", "setting": "[1]", "result": 600, "unit": "µM"}, {"measurement": "Vmax (Abs × 1000/min) (Abs × 1000/min)", "setting": "[1]", "result": 70}, {"measurement": "kcat", "setting": "[1]", "result": 0.06, "unit": "s⁻¹"}, {"measurement": "Cleaved", "setting": "MGG tripeptide", "result": "Yes"}, {"measurement": "Vmax (Abs × 1000/min) (Abs × 1000/min)", "setting": "MGG tripeptide", "result": 134}, {"measurement": "Cleaved", "setting": "IGG tripeptide", "result": "No"}, {"measurement": "Vmax (Abs × 1000/min) (Abs × 1000/min)", "setting": "IGG tripeptide", "result": 3.1}, {"measurement": "Cleaved", "setting": "GGG tripeptide", "result": "No"}, {"measurement": "Vmax (Abs × 1000/min) (Abs × 1000/min)", "setting": "GGG tripeptide", "result": 0.7}, {"measurement": "Cleaved", "setting": "MEG tripeptide", "result": "No"}, {"measurement": "Vmax (Abs × 1000/min) (Abs × 1000/min)", "setting": "MEG tripeptide", "result": 1.1}]}, {"protein": "B2", "values": [{"measurement": "Km", "setting": "[1]", "result": 300, "unit": "µM"}, {"measurement": "kcat", "setting": "[1]", "result": 2.3, "unit": "s⁻¹"}]}]}
